In assay [1] the target is human serum albumin (HSA) (human) (UniProt P02768). The assay is described as follows: ELISA, HSA coated on plate, n = 3.
The target of assay [2] is mouse serum albumin (MSA) (mouse) (UniProt P07724). Nature of the assay: ELISA, MSA coated on plate, n = 3. For orientation: ELISA stands for enzyme-linked immunosorbent assay.
UniProt P07724, sequence (P07724 25-608 limits assumed): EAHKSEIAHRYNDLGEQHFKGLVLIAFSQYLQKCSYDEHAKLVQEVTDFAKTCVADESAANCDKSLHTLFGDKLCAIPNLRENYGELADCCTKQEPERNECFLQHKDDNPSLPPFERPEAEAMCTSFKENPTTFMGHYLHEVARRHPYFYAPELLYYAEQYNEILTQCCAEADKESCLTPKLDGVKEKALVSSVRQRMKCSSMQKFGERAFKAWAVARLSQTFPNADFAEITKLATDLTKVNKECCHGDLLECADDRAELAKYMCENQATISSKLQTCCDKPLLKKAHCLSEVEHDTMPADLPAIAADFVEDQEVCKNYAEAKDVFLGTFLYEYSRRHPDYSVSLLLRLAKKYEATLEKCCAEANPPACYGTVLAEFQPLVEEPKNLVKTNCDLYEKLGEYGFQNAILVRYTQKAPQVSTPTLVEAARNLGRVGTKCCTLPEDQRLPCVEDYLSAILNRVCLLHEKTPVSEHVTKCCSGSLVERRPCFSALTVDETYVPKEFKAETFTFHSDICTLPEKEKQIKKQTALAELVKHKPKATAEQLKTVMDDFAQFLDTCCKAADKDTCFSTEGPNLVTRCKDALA

UniProt P02768, sequence (P02768 25-609 limits assumed): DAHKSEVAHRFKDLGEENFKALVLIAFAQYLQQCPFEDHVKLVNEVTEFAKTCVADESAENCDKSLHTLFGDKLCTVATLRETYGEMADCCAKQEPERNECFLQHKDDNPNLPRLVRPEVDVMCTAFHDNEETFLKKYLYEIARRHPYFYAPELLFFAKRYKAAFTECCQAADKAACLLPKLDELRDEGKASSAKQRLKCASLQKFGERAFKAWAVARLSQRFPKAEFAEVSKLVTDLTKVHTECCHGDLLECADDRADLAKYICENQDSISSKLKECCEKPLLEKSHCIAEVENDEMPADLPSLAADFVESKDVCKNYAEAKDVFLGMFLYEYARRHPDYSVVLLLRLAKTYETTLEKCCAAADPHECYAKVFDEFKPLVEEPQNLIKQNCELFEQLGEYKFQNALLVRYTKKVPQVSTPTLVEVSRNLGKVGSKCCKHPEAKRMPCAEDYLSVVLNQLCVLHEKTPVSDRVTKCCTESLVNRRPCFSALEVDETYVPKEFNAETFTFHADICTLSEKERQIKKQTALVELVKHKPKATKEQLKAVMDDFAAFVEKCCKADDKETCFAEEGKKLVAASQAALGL

On to SS1-ABD-dsFv-PE38 (LMB-209), for which the Affinity was 0.11 nM in assay [1] and 0.16 nM in assay [2].

Source of the values: US20240132619A1.
